Consider 1 molecule from patent US20060223116A1 (published 2006).

The experiment deals with T1, murine ITK (endogenous, mouse thymocytes and CD4 T cells) (mouse, UniProt Q03526 1-625).
T1 construct: Endogenous protein of BALB/c mouse cells; also called endogenous ITK
T1 sequence: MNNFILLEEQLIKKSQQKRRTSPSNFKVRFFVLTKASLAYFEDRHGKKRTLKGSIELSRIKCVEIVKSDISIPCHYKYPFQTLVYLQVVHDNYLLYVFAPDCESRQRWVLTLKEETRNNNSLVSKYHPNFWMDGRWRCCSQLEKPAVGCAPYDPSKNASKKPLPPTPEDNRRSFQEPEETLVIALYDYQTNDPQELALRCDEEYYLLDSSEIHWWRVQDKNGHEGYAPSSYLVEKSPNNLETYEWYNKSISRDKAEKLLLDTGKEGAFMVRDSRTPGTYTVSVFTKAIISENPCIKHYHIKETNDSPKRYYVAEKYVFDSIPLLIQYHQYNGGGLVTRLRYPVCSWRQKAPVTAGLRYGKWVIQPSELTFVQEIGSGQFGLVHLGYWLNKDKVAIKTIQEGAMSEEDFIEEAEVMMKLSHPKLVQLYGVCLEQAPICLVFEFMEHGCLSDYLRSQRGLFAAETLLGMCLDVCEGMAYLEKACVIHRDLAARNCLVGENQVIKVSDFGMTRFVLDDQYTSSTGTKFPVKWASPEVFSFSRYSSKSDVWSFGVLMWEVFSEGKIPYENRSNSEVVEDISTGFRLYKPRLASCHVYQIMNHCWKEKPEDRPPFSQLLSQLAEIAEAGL
The experiment can be described thus: IP of T-bet (4B10) from mouse thymocyte nuclear extracts, anti-ITK (2F12) blot. The procedure: Most important, it was determined whether ITK interacted with T-bet under physiological conditions, by determining endogenous association in primary thymocytes. Single cell suspensions were obtained from thymi of BALB/c wt, T-bet^{-/-} and ITK−/− mice and nuclear extracts were prepared with NE-PER (Pierce, Rockford) according to the manufacturer's instructions. Two mg of nuclear extracts were incubated with anti-T-bet mAb, 4B10, in 150 mM NaCl. Immune complexes were resolved and probed with anti-ITK mAb (2F12), and sequentially with 4B10 after stripping. ITK expression was assayed in 30 μg of nuclear extracts. Initial attempts to perform coimmunoprecipitation experiments in naïve Thp cells 24 and 48 hours after TCR stimulation failed, likely secondary to both the low levels of endogenous T-bet expressed at this early time point and the competing processes of phosphorylation and dephosphorylation occurring in activated cells.

B1: murine T-bet (endogenous, mouse thymocytes and Thp cells) (other, UniProt Q9JKD8 1-530, looked up)
chain: MGIVEPGCGDMLTGTEPMPSDEGRGPGADQQHRFFYPEPGAQDPTDRRAGSSLGTPYSGGALVPAAPGRFLGSFAYPPRAQVAGFPGPGEFFPPPAGAEGYPPVDGYPAPDPRAGLYPGPREDYALPAGLEVSGKLRVALSNHLLWSKFNQHQTEMIITKQGRRMFPFLSFTVAGLEPTSHYRMFVDVVLVDQHHWRYQSGKWVQCGKAEGSMPGNRLYVHPDSPNTGAHWMRQEVSFGKLKLTNNKGASNNVTQMIVLQSLHKYQPRLHIVEVNDGEPEAACSASNTHVFTFQETQFIAVTAYQNAEITQLKIDNNPFAKGFRENFESMYASVDTSVPSPPGPNCQLLGGDPFSPLLSNQYPVPSRFYPDLPGQPKDMISQPYWLGTPREHSYEAEFRAVSMKPTLLPSAPGPTVPYYRGQDVLAPGAGWPVAPQYPPKMSPAGWFRPMRTLPMDPGLGSSEEQGSSPSLWPEVTSLQPEPSDSGLGEGDTKRRRISPYPSSGDSSSPAGAPSPFDKETEGQFYNYFPN
notes: mature; Endogenous protein in nuclear extracts; also called endogenous T-bet
Regarding B1, the binding result is listed as “binds”.
